Experimental findings from doi:10.1101/2024.02.27.582283 are described below.

The target in this assay is SET-26::GFP, excessively sumoylated (ulp-2 loss of activity background) (C. elegans) (UniProt Q9U263). Briefly: co-IP.
Sequence of UniProt Q9U263 (Q9U263 whole entry): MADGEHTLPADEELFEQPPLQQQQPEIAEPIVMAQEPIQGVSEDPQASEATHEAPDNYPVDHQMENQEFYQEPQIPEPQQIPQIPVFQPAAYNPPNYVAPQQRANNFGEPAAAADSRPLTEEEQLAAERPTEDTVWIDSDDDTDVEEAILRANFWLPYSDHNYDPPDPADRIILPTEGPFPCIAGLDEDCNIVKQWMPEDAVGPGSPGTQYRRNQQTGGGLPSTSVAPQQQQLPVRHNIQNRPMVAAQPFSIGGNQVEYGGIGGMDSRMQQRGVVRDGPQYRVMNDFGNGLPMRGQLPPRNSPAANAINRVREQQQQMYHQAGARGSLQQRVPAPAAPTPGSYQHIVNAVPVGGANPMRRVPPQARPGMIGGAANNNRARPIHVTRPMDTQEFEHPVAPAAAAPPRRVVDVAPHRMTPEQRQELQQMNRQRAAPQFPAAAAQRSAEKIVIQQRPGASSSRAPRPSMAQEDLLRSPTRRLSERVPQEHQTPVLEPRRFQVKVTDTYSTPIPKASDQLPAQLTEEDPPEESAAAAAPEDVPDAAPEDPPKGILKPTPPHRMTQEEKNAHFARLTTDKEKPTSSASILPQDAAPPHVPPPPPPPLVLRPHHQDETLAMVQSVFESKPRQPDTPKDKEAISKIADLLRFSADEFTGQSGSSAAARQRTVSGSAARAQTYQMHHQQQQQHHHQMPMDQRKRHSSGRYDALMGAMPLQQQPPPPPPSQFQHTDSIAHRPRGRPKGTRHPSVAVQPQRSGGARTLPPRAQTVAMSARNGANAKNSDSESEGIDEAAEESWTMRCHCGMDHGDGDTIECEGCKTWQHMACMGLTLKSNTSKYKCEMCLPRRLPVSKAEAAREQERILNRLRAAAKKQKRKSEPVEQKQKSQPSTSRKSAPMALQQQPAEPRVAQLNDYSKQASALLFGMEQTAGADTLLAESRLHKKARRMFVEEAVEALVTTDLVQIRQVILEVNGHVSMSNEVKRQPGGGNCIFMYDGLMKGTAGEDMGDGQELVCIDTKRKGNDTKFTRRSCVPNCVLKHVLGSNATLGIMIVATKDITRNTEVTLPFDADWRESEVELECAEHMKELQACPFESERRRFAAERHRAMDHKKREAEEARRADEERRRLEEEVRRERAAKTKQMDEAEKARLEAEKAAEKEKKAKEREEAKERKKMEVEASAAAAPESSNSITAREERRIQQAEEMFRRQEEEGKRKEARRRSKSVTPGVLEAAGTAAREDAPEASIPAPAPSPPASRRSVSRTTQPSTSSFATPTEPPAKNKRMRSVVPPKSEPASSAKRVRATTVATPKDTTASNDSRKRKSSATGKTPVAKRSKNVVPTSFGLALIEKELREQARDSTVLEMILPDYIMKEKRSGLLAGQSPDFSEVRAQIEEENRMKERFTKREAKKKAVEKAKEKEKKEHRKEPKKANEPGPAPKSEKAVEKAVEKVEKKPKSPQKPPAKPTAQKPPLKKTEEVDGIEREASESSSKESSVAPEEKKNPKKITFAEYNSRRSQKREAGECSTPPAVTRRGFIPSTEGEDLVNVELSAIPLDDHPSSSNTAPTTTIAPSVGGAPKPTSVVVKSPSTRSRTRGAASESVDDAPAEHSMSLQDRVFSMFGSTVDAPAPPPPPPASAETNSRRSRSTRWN

“Histone H3 trimethylated at lysine 4 (H3K4me3) (from UniProt P08898 1-136) (natural protein)” yielded a reduction of binding compared with WT of 55%.
